Source: article PMC11117822

Biological target: poly-L-arginine hydrochloride
Test: optical reflectometry; PARG layer adsorbed on silica in a stagnation point flow cell; HSA 5 mg L^-1 flowed over it at Q = 8.33 x 10^-3 cm^3 s^-1; 150 mM NaCl, pH 4.0; 298 K

human serum albumin (from UniProt P02768 25-609)
plateau coverage: 0.1 mg m^−2
